The test deals with Sec5 (bone marrow-derived macrophages) (mouse (endogenous in bone …, UniProt Q9D4H1 1-924)). Briefly: co-IP.
Sequence of Sec5 (bone marrow-derived macrophages) (mouse (Q9D4H1 whole entry): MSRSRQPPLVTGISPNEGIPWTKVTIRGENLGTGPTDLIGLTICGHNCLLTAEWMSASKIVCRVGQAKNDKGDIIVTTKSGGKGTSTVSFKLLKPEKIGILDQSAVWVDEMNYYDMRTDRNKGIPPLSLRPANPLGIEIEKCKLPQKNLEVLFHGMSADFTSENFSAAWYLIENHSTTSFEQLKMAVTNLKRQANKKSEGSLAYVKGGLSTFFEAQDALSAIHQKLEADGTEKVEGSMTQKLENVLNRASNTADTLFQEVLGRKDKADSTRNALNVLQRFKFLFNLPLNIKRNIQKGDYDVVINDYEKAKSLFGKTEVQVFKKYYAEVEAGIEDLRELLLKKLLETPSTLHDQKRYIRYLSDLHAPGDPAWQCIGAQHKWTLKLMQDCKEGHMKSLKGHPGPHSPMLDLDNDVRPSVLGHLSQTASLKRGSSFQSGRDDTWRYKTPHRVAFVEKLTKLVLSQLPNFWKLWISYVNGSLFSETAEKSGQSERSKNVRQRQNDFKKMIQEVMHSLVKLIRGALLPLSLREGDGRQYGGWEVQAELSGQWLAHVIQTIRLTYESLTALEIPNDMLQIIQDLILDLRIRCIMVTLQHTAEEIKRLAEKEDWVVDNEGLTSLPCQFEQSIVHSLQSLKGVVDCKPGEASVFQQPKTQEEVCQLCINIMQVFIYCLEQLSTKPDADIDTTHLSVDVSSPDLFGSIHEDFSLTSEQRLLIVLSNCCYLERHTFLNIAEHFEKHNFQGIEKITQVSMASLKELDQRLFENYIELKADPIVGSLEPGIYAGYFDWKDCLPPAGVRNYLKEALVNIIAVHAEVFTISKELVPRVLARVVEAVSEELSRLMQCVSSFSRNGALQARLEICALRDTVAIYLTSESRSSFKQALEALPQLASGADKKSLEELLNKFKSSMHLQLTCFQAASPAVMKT

B1: Exo84 (bone marrow-derived macrophages) (natural protein, UniProt Q6PGF7 1-716, looked up)
chain: MSDSGASRLRRQLESGGFEARLYVKQLSQQSDGDRDLQEHRQRVQALAEETAQNLKRNVYQNYRQFIETAREISYLESEMYQLSHLLTEQKSSLESIPLALLPAAAAGASAGEDTAGAGPRERGAVQAGFLPGPAGVPREGSGTGEEGKQRTLTTLLEKVEGCRDLLETPGQYLVYNGDLVEYDADHMAQLQRVHGFLMNDCLLVATWLPQRRGMYRYNALYPLDRLAVVNVKDNPPMKDMFKLLMFPESRIFQAENAKIKREWLEVLEETKRALSDKRRREQEEAAAPRAPPPVTSKGSNPFEDEDDEELATPEAEEEKVDLSMEWIQELPEDLDVCIAQRDFEGAVDLLDKLNHYLEDKPSPPPVKELRAKVDERVRQLTEVLVFELSPDRSLRGGPKATRRAVSQLIRLGQCTKACELFLRNRAAAVHTAIRQLRIEGATLLYIHKLCHVFFTSLLETAREFETDFAGTDSGCYSAFVVWARSAMGMFVDAFSKQVFDSKESLSTAAECVKVAKEHCQQLGEIGLDLTFIIHALLVKDIQGALHSYKEIIIEATKHRNSEEMWRRMNLMTPEALGKLKEEMKSCGVSNFEQYTGDDCWVNLSYTVVAFTKQTMGFLEEALKLYFPELHMVLLESLVEIILVAVQHVDYSLRCEQDPEKKAFIRQNASFLYETVLPVVERRFEEGVGKPAKQLQDLRNASRLLRVNPESTTSVV
Take B1: the “fold increase of the association in Tipe2-/- cells over wild type cells” value is ~3 fold.

The record behind these values is paper PMC3299909 (Molecular Cell, 2012).
